Reference: patent US6465618

T1: His-SAPK3, O08911
T1 chain: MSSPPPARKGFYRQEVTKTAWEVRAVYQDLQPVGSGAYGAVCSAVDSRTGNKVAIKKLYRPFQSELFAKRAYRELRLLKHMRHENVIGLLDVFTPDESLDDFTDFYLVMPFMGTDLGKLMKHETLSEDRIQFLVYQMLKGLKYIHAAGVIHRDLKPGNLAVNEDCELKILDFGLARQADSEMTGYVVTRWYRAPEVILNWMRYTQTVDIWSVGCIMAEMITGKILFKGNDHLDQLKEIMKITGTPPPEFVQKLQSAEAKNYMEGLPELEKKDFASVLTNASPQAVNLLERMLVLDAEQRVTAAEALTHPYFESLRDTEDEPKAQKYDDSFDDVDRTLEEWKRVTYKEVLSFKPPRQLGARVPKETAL

B1: His-MKK7 (protein)
chain: AASSLEQKLSRLEAKLKQENREARRRIDLNLDISPQRPRPIIVITLSPAPAPSQRAALQLPLANDGGSRSPSSESSPQHPTPPTRPRHMLGLPSTLFTPRSMESIEIDQKLQEIMKQTGYLTIGGQRYQAEINDLENLGEMGSGTCGQVWKMRFRKTGHIIAVKQMRRSGNKEENKRILMDLDVVLKSHDCPYIVQCFGTFITNTDVFIAMELMGTCAEKLKKRMQGPIPERILGKMTVAIVKALYYLKEKHGVIHRDVKPSNILLDERGQIKLCDFGISGRLVDSKAKTRSAGCAAYMAPERIDPPDPTKPDYDIRADVWSLGISLVELATGQFPYKNCKTDFEVLTKVLQEEPPLLPGHMGFSGDFQSFVKDCLTKDHRKRPKYNKLLEHSFIKHYEILEVDVASWFKDVMAKTESPRTSGVLSQHHLPFFSGSLEESPTSPPSPKSFPLSPAIPQAQAEWVSGR
B2: activated GST-MKK7 (protein)
chain: AASSLEQKLSRLEAKLKQENREARRRIDLNLDISPQRPRPIIVITLSPAPAPSQRAALQLPLANDGGSRSPSSESSPQHPTPPARPRHMLGLPSTLFTPRSMESIEIDQKLQEIMKQTGYLTIGGQRYQAEINDLENLGEMGSGTCGQVWKMRFRKTGHVIAVKQMRRSGNKEENKRILMDLDVVLKSHDCPYIVQCFGTFITNTDVFIAMELMGTCAEKLKKRMQGPIPERILGKMTVAIVKALYYLKEKHGVIHRDVKPSNILLDERGQIKLCDFGISGRLVDSKAKTRSAGCAAYMAPERIDPPDPTKPDYDIRADVWSLGISLVELATGQFPYKNCKTDFEVLTKVLQEEPPLLPGHMGFSGDFQSFVKDCLTKDHRKRPKYNKLLEHSFIKRYETLEVDVASWFKDVMAKTESPRTSGVLSQPHLPFFR
B3: GST-SEK1 (protein)
chain: MAAPSPSGGGGSGGGGGTPGPIGPPASGHPAVSSMQGKRKALKLNFANPPVKSTARFTLNPNTTGVQNPHIERLRTHSIESSGKLKISPEQHWDFTAEDLKDLGEIGRGAYGSVNKMVHKPSGQIMAVKRIRSTVDEKEQKQLLMDLDVVMRSSDCPYIVQFYGALFREGDCWICMELMSTSFDKFYKYVYSVLDDVIPEEILGKITLATVKALNHLKENLKIIHRDIKPSNILLDRSGNIKLCDFGISGQLVDSIAKTRDAGCRPYMAPERIDPSASRQGYDVRSDVWSLGITLYELATGRFPYPKWNSVFDQLTQVVKGDPPQLSNSEEREFSPSFINFVNLCLTKDESKRPKYKELLKHPFILMYEERTVEVACYVCKILDQMPATPSSPMYVD
B4: His-MKK6 (protein)
chain: MSQSKGKKRNPGLKIPKEAFEQPQTSSTPPRDLDSKACISIGNQNFEVKADDLEPIMELGRGAYGVVEKMRHVPSGQIMAVKRIRATVNSQEQKRLLMDLDISMRTVDCPFTVTFYGALFREGDVWICMELMDTSLDKFYKQVIDKGQTIPEDILGKIAVSIVKALEHLHSKLSVIHRDVKPSNVLINALGQVKMCDFGISGYLVDSVAKTIDAGCKPYMAPERINPELNQKGYSVKSDIWSLGITMIELAILRFPYDSWGTPFQQLKQVVEEPSPQLPADKFSAEFVDFTSQCLKKNSKERPTYPELMQHPFFTLHESKGTDVASFVKLILGD

Columns and labels:
His-SAPK3, O08911 = biological target: T1, His-SAPK3, O08911

His-p38, P47811, sequence (P47811 whole entry): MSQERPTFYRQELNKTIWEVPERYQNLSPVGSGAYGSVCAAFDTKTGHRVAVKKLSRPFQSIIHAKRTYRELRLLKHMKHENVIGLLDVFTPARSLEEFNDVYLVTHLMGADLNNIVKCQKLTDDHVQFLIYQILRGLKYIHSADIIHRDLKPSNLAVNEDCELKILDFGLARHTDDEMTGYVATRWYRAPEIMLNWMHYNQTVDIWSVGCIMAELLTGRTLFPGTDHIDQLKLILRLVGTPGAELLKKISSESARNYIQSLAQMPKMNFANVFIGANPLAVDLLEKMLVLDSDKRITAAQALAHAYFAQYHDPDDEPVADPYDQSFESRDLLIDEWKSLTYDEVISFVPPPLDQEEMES
GST-JNK1, P45983, sequence (P45983 other isoform, or with tags, fused parts or gaps): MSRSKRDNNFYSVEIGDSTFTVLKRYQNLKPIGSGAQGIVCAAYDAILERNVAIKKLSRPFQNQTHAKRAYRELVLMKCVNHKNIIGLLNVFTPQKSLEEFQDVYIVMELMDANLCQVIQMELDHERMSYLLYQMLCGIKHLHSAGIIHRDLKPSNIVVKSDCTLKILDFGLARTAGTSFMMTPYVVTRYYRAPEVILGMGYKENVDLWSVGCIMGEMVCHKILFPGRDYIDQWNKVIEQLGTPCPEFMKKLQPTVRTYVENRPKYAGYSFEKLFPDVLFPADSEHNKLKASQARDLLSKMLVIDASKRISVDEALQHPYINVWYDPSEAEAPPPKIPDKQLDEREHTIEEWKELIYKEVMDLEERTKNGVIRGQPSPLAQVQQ

Protein	activation of the MAP kinase in vitro (32P phosphorylation of MBP, SDS-PAGE and autoradiography) (His-SAPK3, O08911)	activation of the MAP kinase in vitro (32P phosphorylation of GST-cJun, SDS-PAGE and autoradiography) (His-SAPKα, Q9WTU6)	activation of the MAP kinase in vitro (32P phosphorylation of ATF-2, SDS-PAGE and autoradiography) (His-p38, P47811)	phosphorylation (activation) of JNK1 in vitro, dot blot with anti-activated JNK antibody (GST-JNK1, P45983)
B1	did not activate p38 and SAPK3	specifically activated SAPK, leading to the phosphorylation of c-Jun	did not activate p38 and SAPK3	
B2				the activity of MKK7 was confirmed by the presence of activated JNK1
B3	activated all of SAPK, p38 and SAPK3	activated all of SAPK, p38 and SAPK3	activated all of SAPK, p38 and SAPK3	
B4	activated p38 and SAPK3	did not activate SAPK	activated p38 and SAPK3	
